Measurements: article PMC11077437, “Scrutiny of chimeric antigen receptor activation by the extracellular domain: experience with single domain antibodies targeting multiple myeloma cells highlights the need for case-by-case optimization” (Frontiers in Immunology, 2024)

Tests used:
Assay in all cases: flow cytometry on cells; 2D3 cells with a VHH-CAR incubated with biotinylated CS1 antigen, then PE-coupled streptavidin
Settings in all cases: one partner purified
[1] = target: T1, VHH-61 CAR on 2D3 reporter T cells (llama | human)
T1 construct: as the VHH of m13; cloned by PstI/BstEII from pHEN6c; hinge region derived from human IgG4; transmembrane and intracellular co-stimulatory domain derived from human CD28; also called 2D3-61; VHH-CAR with VHH-61; source: 2D3 reporter T cells, lentivirally transduced, sorted, on cells

[2] = target: T2, VHH-53 CAR on 2D3 reporter T cells (llama | human)
T2 construct: as the VHH of m10; cloned by PstI/BstEII from pHEN6c; hinge region derived from human IgG4; transmembrane and intracellular co-stimulatory domain derived from human CD28; also called 2D3-53; VHH-CAR with VHH-53; source: 2D3 reporter T cells, lentivirally transduced, sorted, on cells

[3] = target: T3, VHH-29 CAR on 2D3 reporter T cells (llama | human)
T3 construct: as the VHH of m7; cloned by PstI/BstEII from pHEN6c; hinge region derived from human IgG4; transmembrane and intracellular co-stimulatory domain derived from human CD28; also called 2D3-29; VHH-CAR with VHH-29; source: 2D3 reporter T cells, lentivirally transduced, sorted, on cells

[4] = target: T4, VHH-17 CAR on 2D3 reporter T cells (llama | human)
T4 construct: as the VHH of m3; cloned by PstI/BstEII from pHEN6c; hinge region derived from human IgG4; transmembrane and intracellular co-stimulatory domain derived from human CD28; also called 2D3-17; VHH-CAR with VHH-17; source: 2D3 reporter T cells, lentivirally transduced, sorted, on cells
T4 sequence (heavy, as listed by the source): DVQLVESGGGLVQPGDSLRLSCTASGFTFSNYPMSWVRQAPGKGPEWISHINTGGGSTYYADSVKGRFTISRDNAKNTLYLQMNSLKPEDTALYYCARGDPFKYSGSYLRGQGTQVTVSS

[5] = target: T5, VHH-2 CAR on 2D3 reporter T cells (llama | human)
T5 construct: as the VHH of m1; cloned by PstI/BstEII from pHEN6c; hinge region derived from human IgG4; transmembrane and intracellular co-stimulatory domain derived from human CD28; also called 2D3-2; VHH-CAR with VHH-2; source: 2D3 reporter T cells, lentivirally transduced, sorted, on cells
T5 sequence (heavy, as listed by the source): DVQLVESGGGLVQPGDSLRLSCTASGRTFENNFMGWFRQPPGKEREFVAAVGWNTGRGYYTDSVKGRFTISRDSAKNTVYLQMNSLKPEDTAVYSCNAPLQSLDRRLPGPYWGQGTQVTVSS

[6] = target: T6, VHH-6 CAR on 2D3 reporter T cells (llama | human)
T6 construct: as the VHH of m2; cloned by PstI/BstEII from pHEN6c; hinge region derived from human IgG4; transmembrane and intracellular co-stimulatory domain derived from human CD28; also called 2D3-6; VHH-CAR with VHH-6; source: 2D3 reporter T cells, lentivirally transduced, sorted, on cells
T6 sequence (heavy, as listed by the source): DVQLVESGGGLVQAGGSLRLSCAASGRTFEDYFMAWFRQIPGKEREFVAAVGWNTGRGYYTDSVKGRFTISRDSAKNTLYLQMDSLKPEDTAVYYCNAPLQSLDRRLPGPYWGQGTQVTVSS

[7] = target: T7, VHH-71 CAR on 2D3 reporter T cells (llama | human)
T7 construct: as the VHH of m16; cloned by PstI/BstEII from pHEN6c; hinge region derived from human IgG4; transmembrane and intracellular co-stimulatory domain derived from human CD28; also called 2D3-71; VHH-CAR with VHH-71; source: 2D3 reporter T cells, lentivirally transduced, sorted, on cells

[8] = target: T8, VHH-63 CAR on 2D3 reporter T cells (llama | human)
T8 construct: as the VHH of m14; cloned by PstI/BstEII from pHEN6c; hinge region derived from human IgG4; transmembrane and intracellular co-stimulatory domain derived from human CD28; also called 2D3-63; VHH-CAR with VHH-63; source: 2D3 reporter T cells, lentivirally transduced, sorted, on cells

[9] = target: T9, VHH-73 CAR on 2D3 reporter T cells (llama | human)
T9 construct: as the VHH of m17; cloned by PstI/BstEII from pHEN6c; hinge region derived from human IgG4; transmembrane and intracellular co-stimulatory domain derived from human CD28; also called 2D3-73; VHH-CAR with VHH-73; source: 2D3 reporter T cells, lentivirally transduced, sorted, on cells

[10] = target: T10, VHH-57 CAR on 2D3 reporter T cells (llama | human)
T10 construct: as the VHH of m12; cloned by PstI/BstEII from pHEN6c; hinge region derived from human IgG4; transmembrane and intracellular co-stimulatory domain derived from human CD28; also called 2D3-57; VHH-CAR with VHH-57; source: 2D3 reporter T cells, lentivirally transduced, sorted, on cells

binding result [1]: binds
binding result [2]: binds
binding result [3]: binds
binding result [4]: binds
binding result [5]: binds
binding result [6]: binds
binding result [7]: binds
binding result [8]: binds
binding result [9]: binds
binding result [10]: binds
B1: biotinylated recombinant human CS1 (CS1-(his)C-PEG4-biotin) (domain or fragment, UniProt Q9NQ25 23-226, looked up)
chain: SGPVKELVGSVGGAVTFPLKSKVKQVDSIVWTFNTTPLVTIQPEGGTIIVTQNRNRERVDFPDGGYSLKLSKLKKNDSGIYYVGIYSSSLQQPSTQEYVLHVYEHLSKPKVTMGLQSNKNGTCVTNLTCCMEHGEEDVIYTWKALGQAANESHNGSILPISWRWGESDMTFICVARNPVSRNFSSPILARKLCEGAADDPDSSM
modifications: PEG4-biotin
notes: CS1 (SLAMF7, CD319), human, the extracellular portion, biotinylated variant; also called biotinylated CS1 antigen; biotinylated CS1 protein; source: custom-produced by U Protein Express
